{
  "source": "paper PMC3902943",
  "binders": {"B1": {"name": "S1m aptamer (60 nt) (structured_RNA)", "RNA": "AUGCGGCCGCCGACCAGAAUCAUGCAAGUGCGUAAGAUAGUCGCGGGUCGGCGGCCGCAU"}},
  "biological_target": "streptavidin (SA) (UniProt P22629 25-183)",
  "sequence (P22629 25-183)": "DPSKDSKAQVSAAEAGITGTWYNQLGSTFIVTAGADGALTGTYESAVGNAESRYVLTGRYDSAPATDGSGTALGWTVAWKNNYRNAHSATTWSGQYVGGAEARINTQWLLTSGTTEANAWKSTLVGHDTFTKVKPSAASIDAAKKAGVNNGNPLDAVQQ",
  "assay": "EMSA",
  "data": [
    {"binder": "B1", "values": [
      {"measurement": "Kd", "value": 29, "unit": "nM"}
    ]},
    {"binder": "ACCGACCAGAAUCAUGCAAGUGCGUAAGAUAGUCGCGGGCCGGG (structured_RNA)", "note": "[S1 aptamer (44 nt)]", "values": [
      {"measurement": "Kd", "value": 59, "unit": "nM"}
    ]}
  ]
}
